In article PMC3417369 one finds Km data, which are given here for one protein.

Substrate in the data set: C[C@H](O)C(=O)O
The data set is described as follows: cells, lysate or membranes named. The class given is biochemical, Staphylococcus aureus. To be noted: 1.4 mM menaquinone, 5 μM FAD, phosphatidylethanolamine vesicles, NBT.

B1: Lqo (Mqo2, SACOL2623) (Staphylococcus aureus subsp. aureus COL) (protein)
chain: MAKSNSKDIVLIGAGVLSTTFGSMLKEIEPDWNIHVYERLDRPAIESSNERNNAGTGHAALCELNYTVLQPDGSIDIEKAKVINEEFEISKQFWGHLVKSGSIENPREFINPLPHISYVRGKNNVKFLKDRYEAMKAFPMFDNIEYTEDIEVMKKWIPLMMKGREDNPGIMAASKIDEGTDVNFGELTRKMAKSIEAHPNATVQFNHEVVDFEQLSNGQWEVTVKNRLTGEKFKQVTDYVFIGAGGGAIPLLQKTGIPESKHLGGFPISGQFLACTNPQVIEQHDAKVYGKEPPGTPPMTVPHLDTRYIDGQRTLLFGPFANVGPKFLKNGSNLDLFKSVKTYNITTLLAAAVKNLPLIKYSFDQVIMTKEGCMNHLRTFYPEARNEDWQLYTAGKRVQVIKDTPEHGKGFIQFGTEVVNSQDHTVIALLGESPGASTSVSVALEVLERNFPEYKTEWAPKIKKMIPSYGESLIEDEKLMRKIRKQTSKDLELGYYEN
As to B1, the Km (commonly the substrate concentration at which the rate is half of its maximum) was 330 µM.
